The source of these data is patent EP3075390A1 (Immunomedics Inc., dated 2016).

The Kd is the constant that tells how readily two partners part at equilibrium.

Experiment [1] deals with IGF-1R and EGP-1 together on MCF-7, DU-145 or ME-180 cells. Briefly: flow cytometry (FACScan) on MCF-7 cells; structural control construct.
For experiment [2], the target named is EGP-1 (UniProt P09758). Briefly: flow cytometry (FACScan) on MCF-7 cells.
The target of experiment [3] is EGP-1 (UniProt P09758). Briefly: flow cytometry (FACScan) on DU-145 cells. On the technique in general: A flow cytometer gives signals particle by particle.
For experiment [4], the target named is EGP-1 (UniProt P09758). Nature of the experiment: flow cytometry (FACScan) on ME-180 cells.
Experiment [5] addresses T1, recombinant human IGF-1R (rhIGF-1R) (human, UniProt P08069 31-935).
T1 construct: extracellular domain; also called immobilized recombinant human IGF-1R; IGF-1R-coated beads
Nature of the experiment: labeled antibody on rhIGF-1R-coated beads; competitor: unlabeled R1.

The target in experiment [6] is T1, recombinant human IGF-1R (rhIGF-1R). Briefly: labeled antibody on rhIGF-1R-coated beads; competitor: unlabeled 1-2.
The target is the same in experiment [7]. Briefly: labeled antibody on rhIGF-1R-coated beads; competitor: unlabeled 1H7.
Experiment [8] has the same target. Briefly: labeled antibody on rhIGF-1R-coated beads; competitor: unlabeled 2C8.
Experiment [9] shares this target. Nature of the experiment: labeled antibody on rhIGF-1R-coated beads; competitor: unlabeled 3B7.
Experiment [10] has the same target. Nature of the experiment: labeled antibody on rhIGF-1R-coated beads; competitor: unlabeled cR1.
Experiment [11] has the same target. Nature of the experiment: labeled antibody on rhIGF-1R-coated beads; competitor: unlabeled hR1.
Experiment [12] shares this target. Briefly: labeled antibody on rhIGF-1R-coated beads; competitor: unlabeled 17-69.
Experiment [13] shares this target. Nature of the experiment: labeled antibody on rhIGF-1R-coated beads; competitor: unlabeled 24-31.
The target is the same in experiment [14]. Nature of the experiment: labeled antibody on rhIGF-1R-coated beads; competitor: unlabeled 24-57.
Experiment [15] shares this target. Briefly: labeled antibody on rhIGF-1R-coated beads; competitor: unlabeled 24-60.
Experiment [16] has the same target. Nature of the experiment: labeled antibody on rhIGF-1R-coated beads; competitor: unlabeled αIR-3.
The target is the same in experiment [17]. Briefly: labeled antibody on rhIGF-1R-coated beads; competitor: unlabeled MAB391.
In experiment [18] the target is IGF-1R and EGP-1 together on MCF-7, DU-145 or ME-180 cells. Briefly: flow cytometry (FACScan) on MCF-7 cells; control antibody.
The target is the same in experiment [19]. Briefly: flow cytometry (FACScan) on DU-145 cells; control antibody.
Experiment [20] has the same target. Briefly: flow cytometry (FACScan) on ME-180 cells; control antibody.
For experiment [21], the target named is IGF-1R on human cancer cell lines (human) (UniProt P08069). Briefly: 125I-IGF-1 binding to MCF-7L cells with antibody at 100 ng/mL.
Sequence of IGF-1R on human cancer cell lines (human) (P08069 31-1367): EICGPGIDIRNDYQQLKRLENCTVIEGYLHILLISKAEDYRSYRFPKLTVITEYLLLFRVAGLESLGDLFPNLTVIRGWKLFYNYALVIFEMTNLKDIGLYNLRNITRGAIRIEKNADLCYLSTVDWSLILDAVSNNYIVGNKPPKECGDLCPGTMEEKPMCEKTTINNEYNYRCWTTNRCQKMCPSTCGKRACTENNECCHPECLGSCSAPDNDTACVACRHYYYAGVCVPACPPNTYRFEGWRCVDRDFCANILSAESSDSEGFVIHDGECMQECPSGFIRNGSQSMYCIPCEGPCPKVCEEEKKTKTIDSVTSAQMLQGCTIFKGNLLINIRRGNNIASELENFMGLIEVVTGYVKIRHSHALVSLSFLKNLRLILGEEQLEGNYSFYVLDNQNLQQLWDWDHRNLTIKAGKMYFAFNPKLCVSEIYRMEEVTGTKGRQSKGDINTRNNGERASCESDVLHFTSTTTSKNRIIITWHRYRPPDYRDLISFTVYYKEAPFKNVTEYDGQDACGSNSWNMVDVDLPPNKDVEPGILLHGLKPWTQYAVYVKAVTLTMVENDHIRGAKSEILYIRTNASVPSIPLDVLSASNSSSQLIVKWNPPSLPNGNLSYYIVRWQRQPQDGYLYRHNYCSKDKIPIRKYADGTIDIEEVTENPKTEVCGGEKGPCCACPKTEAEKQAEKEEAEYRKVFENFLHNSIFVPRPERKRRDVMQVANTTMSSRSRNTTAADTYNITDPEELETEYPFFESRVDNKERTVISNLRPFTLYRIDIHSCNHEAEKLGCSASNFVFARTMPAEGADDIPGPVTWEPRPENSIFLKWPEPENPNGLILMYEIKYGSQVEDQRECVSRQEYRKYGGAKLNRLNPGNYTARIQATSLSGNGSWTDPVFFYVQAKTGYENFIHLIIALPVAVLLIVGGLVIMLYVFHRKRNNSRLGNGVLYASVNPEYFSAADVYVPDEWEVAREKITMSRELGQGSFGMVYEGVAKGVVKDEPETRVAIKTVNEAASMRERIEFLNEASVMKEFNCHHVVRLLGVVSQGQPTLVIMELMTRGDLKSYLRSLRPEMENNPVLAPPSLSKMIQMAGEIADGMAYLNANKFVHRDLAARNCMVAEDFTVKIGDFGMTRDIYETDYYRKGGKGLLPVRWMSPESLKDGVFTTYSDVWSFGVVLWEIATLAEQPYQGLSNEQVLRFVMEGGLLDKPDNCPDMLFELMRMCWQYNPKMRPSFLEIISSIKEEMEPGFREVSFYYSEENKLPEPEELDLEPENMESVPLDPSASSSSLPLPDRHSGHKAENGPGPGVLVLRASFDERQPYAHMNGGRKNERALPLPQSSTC
The target is the same in experiment [22]. Nature of the experiment: 125I-IGF-1 binding to MCF-7L cells with antibody at 1000 ng/mL.
The target of experiment [23] is T2, recombinant human insulin receptor (rhIR) (human, UniProt P06213-2 28-944, limits assumed).
T2 construct: also called recombinant human IR
T2 sequence (P06213 other isoform, or with tags, fused parts or gaps limits assumed): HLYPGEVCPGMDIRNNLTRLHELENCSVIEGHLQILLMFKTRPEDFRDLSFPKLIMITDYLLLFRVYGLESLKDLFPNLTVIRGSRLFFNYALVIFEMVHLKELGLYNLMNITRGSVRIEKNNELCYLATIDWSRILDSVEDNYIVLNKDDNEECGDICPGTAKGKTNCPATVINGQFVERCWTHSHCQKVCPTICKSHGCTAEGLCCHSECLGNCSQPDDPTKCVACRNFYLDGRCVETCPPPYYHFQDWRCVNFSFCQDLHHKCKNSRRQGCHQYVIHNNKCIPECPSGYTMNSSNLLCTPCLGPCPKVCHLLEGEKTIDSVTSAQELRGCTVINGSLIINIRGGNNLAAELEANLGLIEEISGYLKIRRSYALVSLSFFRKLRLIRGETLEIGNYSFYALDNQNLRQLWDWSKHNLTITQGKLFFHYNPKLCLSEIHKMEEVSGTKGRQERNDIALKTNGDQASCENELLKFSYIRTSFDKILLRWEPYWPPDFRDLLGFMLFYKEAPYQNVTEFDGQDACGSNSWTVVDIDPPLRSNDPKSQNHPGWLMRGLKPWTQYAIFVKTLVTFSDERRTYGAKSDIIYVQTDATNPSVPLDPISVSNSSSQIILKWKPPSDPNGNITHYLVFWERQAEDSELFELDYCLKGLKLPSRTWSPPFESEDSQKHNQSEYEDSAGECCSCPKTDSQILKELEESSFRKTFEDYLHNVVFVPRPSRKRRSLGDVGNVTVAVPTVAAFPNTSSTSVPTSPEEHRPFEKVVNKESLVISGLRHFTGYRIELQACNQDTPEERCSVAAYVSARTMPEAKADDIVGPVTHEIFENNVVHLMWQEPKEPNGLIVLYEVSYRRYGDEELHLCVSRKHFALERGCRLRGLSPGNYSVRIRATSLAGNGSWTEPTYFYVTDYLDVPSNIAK
Briefly: hybridoma screening, assay not described.

The target of experiment [24] is T1, recombinant human IGF-1R (rhIGF-1R). Nature of the experiment: PE-tagged MAB391 on IGF-1R-coated beads with R1 at 100 µg/mL.
The target in experiment [25] is T2, recombinant human insulin receptor …. Nature of the experiment: ELISA on immobilized rhIR. For orientation: An ELISA detects its analyte on a solid surface through an enzyme-linked reagent.
The target of experiment [26] is T1, recombinant human IGF-1R (rhIGF-1R). Briefly: ELISA on immobilized rhIGF-1R (FIG. 3).
Experiment [27] addresses IGF-1R on human cancer cell lines (human) (UniProt P08069). Nature of the experiment: flow cytometry (FACScan) on MCF-7 cells.
For experiment [28] the target is unchanged. Briefly: flow cytometry (FACScan) on DU-145 cells.
Experiment [29] shares this target. Briefly: flow cytometry (FACScan) on ME-180 cells.

T1 sequence (P08069 31-935): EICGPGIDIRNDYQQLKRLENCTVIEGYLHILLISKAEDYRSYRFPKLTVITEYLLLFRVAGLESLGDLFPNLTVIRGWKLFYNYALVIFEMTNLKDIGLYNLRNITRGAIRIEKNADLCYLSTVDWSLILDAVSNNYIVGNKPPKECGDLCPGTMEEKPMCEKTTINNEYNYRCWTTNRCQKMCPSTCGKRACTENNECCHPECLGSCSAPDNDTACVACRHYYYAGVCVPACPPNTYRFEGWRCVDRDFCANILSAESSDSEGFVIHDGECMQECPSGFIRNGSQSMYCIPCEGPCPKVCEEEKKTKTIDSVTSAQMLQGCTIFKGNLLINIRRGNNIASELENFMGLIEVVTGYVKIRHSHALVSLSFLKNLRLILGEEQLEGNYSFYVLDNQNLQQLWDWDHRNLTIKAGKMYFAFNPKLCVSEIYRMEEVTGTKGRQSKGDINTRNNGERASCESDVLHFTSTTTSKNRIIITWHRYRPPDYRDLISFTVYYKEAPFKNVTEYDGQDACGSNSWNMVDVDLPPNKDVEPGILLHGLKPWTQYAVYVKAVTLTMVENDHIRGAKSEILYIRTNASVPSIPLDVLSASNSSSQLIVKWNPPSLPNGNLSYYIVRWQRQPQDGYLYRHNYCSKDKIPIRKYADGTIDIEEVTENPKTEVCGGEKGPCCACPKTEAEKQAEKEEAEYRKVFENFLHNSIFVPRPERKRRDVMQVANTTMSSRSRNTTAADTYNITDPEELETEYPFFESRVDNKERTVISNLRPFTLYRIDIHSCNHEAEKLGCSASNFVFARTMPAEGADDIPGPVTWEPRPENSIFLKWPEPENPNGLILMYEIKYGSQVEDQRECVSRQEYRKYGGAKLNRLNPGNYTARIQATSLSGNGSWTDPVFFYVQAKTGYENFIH
Sequence of EGP-1 (P09758 27-323): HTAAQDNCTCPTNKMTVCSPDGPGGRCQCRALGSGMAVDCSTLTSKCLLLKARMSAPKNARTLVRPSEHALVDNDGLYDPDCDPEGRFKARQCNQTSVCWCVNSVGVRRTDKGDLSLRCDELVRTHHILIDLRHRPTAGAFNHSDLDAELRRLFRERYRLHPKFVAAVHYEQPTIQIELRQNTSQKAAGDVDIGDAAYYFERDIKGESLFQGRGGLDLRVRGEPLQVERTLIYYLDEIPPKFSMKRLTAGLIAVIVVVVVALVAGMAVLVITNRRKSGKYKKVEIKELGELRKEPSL

In experiment [1], “22-20 (DNL construct of hLL2 IgG-AD2 and hA20 Fab-DDD2) (bispecific antibody)” displayed a % Positive of 3.1% and an MFI of 2.11.
Consider “Hex-hRS7 (hexavalent DNL construct of hRS7 IgG-AD2 and hRS7 Fab-DDD2)”, for which the % Positive with EGP-1 [2] amounted to 99.9%; with EGP-1 [3] it was 93.7%; in the experiment with EGP-1 [4], 100%. Further, the MFI in the experiment with EGP-1 [2] was 35.7; with EGP-1 [3] it was 17; with EGP-1 [4] it was 59.6.
As for anti-IGF-1R antibody 24-60, the % binding of labeled antibody in [5] is 0%; in [6], 100%; in experiment [7] it was 100%; in experiment [8] it was 88%; in experiment [9] it was 79%; in experiment [10] it was 0%. Further, the % binding of labeled antibody in [11] came out at 0%; in experiment [12] it was 82%; in experiment [13] it was 18%; in experiment [14], 88%; in experiment [15], 0%; in experiment [16], 21%. In addition, the % binding of labeled antibody in experiment [17] amounted to 0%.
With anti-IGF-1R antibody αIR-3, the % binding of labeled antibody stood at 86% in experiment [5]; 95% in [6]; 115% in [7]; 97% in experiment [8]; 76% in experiment [9]; 97% in experiment [10]. Further, the % binding of labeled antibody in experiment [11] worked out at 107%; in experiment [12] it was 89%; in [13] it was 52%; in [14] it was 87%; in experiment [15], 0%; in [16], 0%. Further, the % binding of labeled antibody in experiment [17] was 0%.
In the case of human IgG (control) (antibody), the % Positive is 2.34% in experiment [18], 1.44% in experiment [19] and 1.37% in [20]. For the same molecule, the MFI in [18] was found to be 1.84; in [19] it was 2.21; in experiment [20], 1.8.
Consider “mouse anti-IGF-1R monoclonal antibody MAB391”, for which the % binding of 125I-IGF-1 in [21] stood at 54%; in [22] it was 38%. The % binding of labeled antibody in [5] came out at 40%; in experiment [17], 0%.

B1: murine anti-IGF-1R antibody R1 (antibody, V domains shown)
VH: EVKLVESGGGLVQPGGSLKLSCATSGFTFSDYYMYWVRQTPEKRLEWVAYITNYGGSTYYPDTVKGRFTISRDNAKNTLYLQMSRLRSEDTAMYFCARQSNYDYDGWFAYWGQGTTVTVSS
VL: DIVMTQSHKFMSTSVGDRVSITCKASQEVGTAVAWYQQKPGQSPKLLIYWASTRHTGVPDRFTGSGSGTDFTLTISNVQSEDLADYFCQQYSNYPLTFGAGAKLELKR
notes: also called ML04R1; murine R1
B1: in experiment [23], the binding result was “no binding”. For the same molecule, the % binding of 125I-IGF-1 came to 71% in experiment [21] and 58% in experiment [22]. For the same molecule, in experiment [24], the % inhibition of the binding of PE-tagged MAB391 lay within 50 to 60%. Besides, the % binding of labeled antibody in [5] worked out at 0%; in experiment [7], 150%; in [9] it was 117%; in [10], 0%; in experiment [11], 0%; in [15], 43%. The % binding of labeled antibody in [16] came out at 143%.

B2: chimeric R1 antibody (cR1) (antibody, V domains shown)
VH: B1 VH
VL: B1 VL
notes: Mouse-human chimeric mAb of R1, R1 VH and VK in the pdHL2 vector with human constant regions; also called clones 709.2D2 and 710.2G2
Consider B2, for which, in experiment [25], the binding result is on record as “no binding”. For the same molecule, the Kd in [26] is roughly 0.1 nM.

B3: humanized R1 antibody (hR1) (antibody, V domains shown)
VH: QVQLQESGGGVVQPGRSLRLSCSASGFTFSDYYMYWVRQAPGKGLEWVAYITNYGGSTYYPDTVKGRFTISRDNAKNTLFLQMDSLRPEDTGVYFCARQSNYDYDGWFAYWGQGTPVTVSS
VL: DIQLTQSPSSLSASVGDRVTITCKASQEVGTAVAWYQQKPGKAPKLLIYWASTRHTGVPSRFSGSGSGTDFTFTISSLQPEDIATYFCQQYSNYPLTFGQGTKVEIKR
Turning to B3, the % Positive in experiment [27] is 89.2%; in experiment [28], 30.4%; in experiment [29] it was 10.7%. The results for the MFI in [27], in [28] and in experiment [29] were 9.93, 5.33 and 3.65, respectively. The % binding of labeled antibody was 0% in experiment [5]; 100% in [6]; 131% in experiment [7]; 100% in experiment [8]; 100% in experiment [9]; 0% in [10]. The % binding of labeled antibody in experiment [11] came to 0%; in experiment [12] it was 100%; in [13], 100%; in [14] it was 100%; in [15], 71%; in experiment [16], 136%. The % binding of labeled antibody in experiment [17] was found to be 121%.
